Test results published in patent US20180155451A1 (published 2018).
Where a chain is given by its changes, count along the chain named. In names and notes the source's numbering stands.

T1: FcgRIIaH (human, UniProt P12318 34-217)
T1 construct: extracellular domain; Soluble extracellular domain with C-terminal His tag; also called FcγRIIa H; FcγRIIa type H; not shown: His tag attached to the C terminus
T1 sequence (looked up): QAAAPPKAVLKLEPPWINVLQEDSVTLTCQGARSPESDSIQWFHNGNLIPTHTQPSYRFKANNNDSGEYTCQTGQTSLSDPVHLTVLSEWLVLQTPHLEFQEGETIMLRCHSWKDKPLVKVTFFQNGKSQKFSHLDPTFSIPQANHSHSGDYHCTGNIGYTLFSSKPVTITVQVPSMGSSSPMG

T2: FcgRIIaR (human, UniProt P12318 34-217)
T2 construct: extracellular domain; Soluble extracellular domain with C-terminal His tag; also called FcγRIIa R; FcγRIIa type R; not shown: His tag attached to the C terminus
T2 sequence (looked up): T1 sequence (looked up) with H134R

T3: FcgRIIb (human, UniProt P31994 43-217)
T3 construct: extracellular domain; Soluble extracellular domain with C-terminal His tag; also called FcγRIIb; CD32B; not shown: His tag attached to the C terminus
T3 sequence (looked up): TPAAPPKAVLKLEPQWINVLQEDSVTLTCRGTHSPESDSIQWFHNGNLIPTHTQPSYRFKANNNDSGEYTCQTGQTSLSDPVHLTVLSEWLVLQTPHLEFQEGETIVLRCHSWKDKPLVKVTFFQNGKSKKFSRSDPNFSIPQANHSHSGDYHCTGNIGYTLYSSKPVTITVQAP

B1: H240-Kn120/H240-Hl068/L73-k0 (antibody, human IgG1, kappa)
heavy 1: QDQLVQSGAEVKKPGASVKVSCKASGFNIKDTYIQWVRQAPGQGLEWMGRIDPLRKQTKYREKFEGRVTITADTSTNTAYMELSSLRSEDTAVYYCVRSGREFDYWGQGTLVTVSSASTKGPSVFPLAPSSKSTSGGTAALGCLVKDYFPEPVTVSWNSGALTSGVHTFPAVLQSSGLYSLSSVVTVPSSSLGTQTYICNVNHKPSNTKVDKKVEPKSCDKTHTCPPCPAPEYYWGPMVFLFPPKPKDTLMISRTPEVTCVVVDVSDEDPEVKFNWYVDGVEVHNAKTKPREEQYNATYRVVSVLTVLHQDWLNGKEYKCKVSNKDLPAPIEKTISKAKGQPREPQVCTLPPSRDELTKNQVSLWCLVKGFYPSDIAVEWESNGQPENNYKTTPPVLDSDGSFFLYSKLTVDKSRWQQGNVFSCSVMHEALHNHYTQKSLSLSP
heavy 2: QDQLVQSGAEVKKPGASVKVSCKASGFNIKDTYIQWVRQAPGQGLEWMGRIDPLRKQTKYREKFEGRVTITADTSTNTAYMELSSLRSEDTAVYYCVRSGREFDYWGQGTLVTVSSASTKGPSVFPLAPSSKSTSGGTAALGCLVKDYFPEPVTVSWNSGALTSGVHTFPAVLQSSGLYSLSSVVTVPSSSLGTQTYICNVNHKPSNTKVDKKVEPKSCDKTHTCPPCPAPELLGGPSVFLFPPKPKDTLMISRTPEVTCVVVDVSHEEPEVKFNWYVDGVEVHNAKTKPREEQYNSTYRVVSVLTVLHQDWLNGKEYKCKVSNDALPKPIEETISKAKGQPREPQVYTLPPSRCELTKNQVSLSCAVKGFYPSDIAVEWESNGQPENNYKTTPPVLDSDGSFFLVSKLTVDKSRWQQGNVFSCSVMHEALHNHYTQKSLSLSP
light: DIQMTQSPSSLSASVGDRVTITCRASQDIHKYIAWYQQKPGQAPRLLIQYTSTLQPGVPSRFSGSGSGTDYTFTISSLQPEDIATYYCLQYEQLRTFGGGTKVEIKRTVAAPSVFIFPPSDEQLKSGTASVVCLLNNFYPREAKVQWKVDNALQSGNSQESVTEQDSKDSTYSLSSTLTLSKADYEKHKVYACEVTHQGLSSPVTKSFNRGEC
notes: Heterodimerized anti-epiregulin IgG1 antibody (knobs-into-holes); also called H240-Kn120/H240-HI068/L73-k0
B2: H240-Kn120/H240-Hl174/L73-k0 (antibody, human IgG1, kappa)
heavy 1: B1 heavy 1
heavy 2: B1 heavy 2 with I331E
light: B1 light
notes: Heterodimerized anti-epiregulin IgG1 antibody; I332E introduced into H240-Hl068; also called H240-Kn120/H240-HI174/L73-k0
B3: H240-Kn149/H240-Hl068/L73-k0 (antibody, human IgG1, kappa)
heavy 1: B1 heavy 1 with L327W, K333L
heavy 2: B1 heavy 2
light: B1 light
notes: Heterodimerized anti-epiregulin IgG1 antibody; L328W and K334L introduced into H240-Kn120; also called H240-Kn149/H240-HI068/L73-k0
B4: H240-Kn166/H240-Hl170/L73-k0 (antibody, human IgG1, kappa)
heavy 1: B1 heavy 1 with L327A
heavy 2: B1 heavy 2 with L327A
light: B1 light
notes: Anti-epiregulin IgG1 antibody; L328A introduced into both H chains of H240-Kn120/H240-Hl068/L73-k0; also called H240-Kn166/H240-HI170/L73-k0
B5: H240-Kn120/H240-Hl170/L73-k0 (antibody, human IgG1, kappa)
heavy 1: B1 heavy 1
heavy 2: B1 heavy 2 with L327A
light: B1 light
notes: Heterodimerized anti-epiregulin IgG1 antibody; L328A introduced into H240-Hl068; also called H240-Kn120/H240-HI170/L73-k0
B6: H240-Kn120/H240-Hl150/L73-k0 (antibody, human IgG1, kappa)
heavy 1: B1 heavy 1
heavy 2: B1 heavy 2 with I331T
light: B1 light
notes: Heterodimerized anti-epiregulin IgG1 antibody; I332T introduced into H240-Hl068; also called H240-Kn120/H240-HI150/L73-k0
B7: H240-Kn120/H240-Hl182/L73-k0 (antibody, human IgG1, kappa)
heavy 1: B1 heavy 1
heavy 2: B1 heavy 2 with A230H
light: B1 light
notes: Heterodimerized anti-epiregulin IgG1 antibody; A231H introduced into H240-Hl068; also called H240-Kn120/H240-HI182/L73-k0
B8: H240-Kn138/H240-Hl068/L73-k0 (antibody, human IgG1, kappa)
heavy 1: B1 heavy 1 with L327W
heavy 2: B1 heavy 2
light: B1 light
notes: Heterodimerized anti-epiregulin IgG1 antibody; L328W introduced into H240-Kn120; also called H240-Kn138/H240-HI068/L73-k0
B9: H240-Kn138/H240-Hl147/L73-k0 (antibody, human IgG1, kappa)
heavy 1: B1 heavy 1 with L327W
heavy 2: B1 heavy 2 with L327W
light: B1 light
notes: Anti-epiregulin IgG1 antibody; L328W introduced into both H chains of H240-Kn120/H240-Hl068/L73-k0; also called H240-Kn138/H240-HI147/L73-k0

Molecular target: T4, FcgRIa (human, UniProt P12314 16-292)
T4 construct: extracellular domain; Soluble extracellular domain with C-terminal His tag, expressed in FreeStyle293 cells; also called FcγRIa; FcγRI; not shown: His tag attached to the C terminus
Test: SPR (Biacore), antibody captured, FcgR as analyte
Method: (§1) Analysis of interaction between obj ective antibody and the FcγR was carried out using Biacore T100 (GE Healthcare), Biacore T200, Biacore A100, and Biacore 4000. HBS-EP+ (GE Healthcare) was used as the running buffer, and the measurement temperature was set to 25° C. Chips produced by immobilizing the antigen peptide by the amine coupling method to a Series S sensor Chip CM5 (GE Healthcare), chips produced by allowing preliminarily biotinylated antigen peptides to interact with and immobilize onto a Series S Sensor Chip SA (certified) (GE Healthcare), chips produced by immobilizing Protein L (ACTIGEN, BioVision) to Series S Sencor Chip CM5 (GE Healthcare), or chips produced by immobilizing Protein A/G (Thermo Scientific) to Series S Sencor Chip CM5 (GE Healthcare) were used. Antibodies of interest were captured onto these chips, and allowed to interact to each FcγR diluted with running buffer. To regenerate and repeatedly use the chip, the antibodies captured onto the chip were washed off by reacting 10 mM glycine-HCl, pH 1.5.

T4 sequence (P12314 16-292): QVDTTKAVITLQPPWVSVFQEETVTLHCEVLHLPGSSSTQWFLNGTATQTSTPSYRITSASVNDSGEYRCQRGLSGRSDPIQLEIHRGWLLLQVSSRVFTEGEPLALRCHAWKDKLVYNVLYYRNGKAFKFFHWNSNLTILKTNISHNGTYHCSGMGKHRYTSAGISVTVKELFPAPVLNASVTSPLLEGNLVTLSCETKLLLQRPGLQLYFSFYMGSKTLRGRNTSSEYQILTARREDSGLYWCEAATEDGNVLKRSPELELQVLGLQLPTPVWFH

| Kd [nM] | Binder |
| --- | --- |
| 0.16 | B1 |
| 0.14 | B2 |
| 0.38 | B3 |
| 0.066 | B4 |
| 0.19 | B5 |
| 0.39 | B6 |
| 0.18 | B7 |
| 0.16 | B8 |
| 0.31 | B9 |

Molecular target: T1, FcgRIIaH
Test: SPR (Biacore), antibody captured, FcgR as analyte
Method: as §1

| Kd [nM] | Binder |
| --- | --- |
| 41 | B1 |
| 55 | B2 |
| 26 | B3 |
| 22 | B4 |
| 18 | B5 |
| 35 | B6 |
| 77 | B7 |
| 25 | B8 |
| 130 | B9 |

Molecular target: T5, FcgRIIIaV (human, UniProt P08637 17-208)
T5 construct: extracellular domain; Soluble extracellular domain with C-terminal His tag; polymorphic site made after J. Clin. Invest; also called FcγRIIIa V; not shown: His tag attached to the C terminus
Test: SPR (Biacore), antibody captured, FcgR as analyte
Method: as §1

T5 sequence (P08637 17-208 F176V limits assumed): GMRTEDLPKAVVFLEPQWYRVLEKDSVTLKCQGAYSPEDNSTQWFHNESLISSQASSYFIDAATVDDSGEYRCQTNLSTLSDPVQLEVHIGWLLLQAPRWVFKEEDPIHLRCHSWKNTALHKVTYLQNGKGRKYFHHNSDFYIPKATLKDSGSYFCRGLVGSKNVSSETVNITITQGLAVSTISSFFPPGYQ

| Kd [nM] | Binder |
| --- | --- |
| 0.36 | B1 |
| 0.036 | B2 |
| 0.32 | B3 |
| 1 | B4 |
| 0.93 | B5 |
| 0.57 | B6 |
| 0.29 | B7 |
| 0.43 | B8 |
| 16 | B9 |

Molecular target: T2, FcgRIIaR
Test: SPR (Biacore), antibody captured, FcgR as analyte
Method: as §1

| Kd [nM] | Binder |
| --- | --- |
| 20 | B1 |
| 30 | B2 |
| 19 | B3 |
| 31 | B4 |
| 8.6 | B5 |
| 20 | B6 |
| 40 | B7 |
| 19 | B8 |
| 11 | B9 |

Molecular target: T6, FcgRIIIaF (human, UniProt P08637 17-208)
T6 construct: extracellular domain; Soluble extracellular domain with C-terminal His tag; polymorphic site made after J. Clin. Invest; also called FcγRIIIa F; not shown: His tag attached to the C terminus
Test: SPR (Biacore), antibody captured, FcgR as analyte
Method: as §1

T6 sequence (P08637 17-208): as the sequence (P08637 17-208 F176V limits assumed) above, with V160F counted along it

| Kd [nM] | Binder |
| --- | --- |
| 2.2 | B1 |
| 0.51 | B2 |
| 1.5 | B3 |
| 4.2 | B4 |
| 3.9 | B5 |
| 3 | B6 |
| 3.1 | B7 |
| 3.7 | B8 |
| 22 | B9 |

Molecular target: T3, FcgRIIb
Test: SPR (Biacore), antibody captured, FcgR as analyte
Method: as §1

| Kd [nM] | Binder |
| --- | --- |
| 150 | B1 |
| 130 | B2 |
| 150 | B3 |
| 200 | B4 |
| 67 | B5 |
| 98 | B6 |
| 240 | B7 |
| 130 | B8 |
| 110 | B9 |

Molecular target: T4, FcgRIa
Test: SPR (Biacore); KD of H240-Kn120/H240-Hl068/L73-k0 divided by KD of this antibody
Method: (§2) Analysis of interaction between obj ective antibody and the FcγR was carried out using Biacore T100 (GE Healthcare), Biacore T200, Biacore A100, and Biacore 4000.

| Relative KD | Binder |
| --- | --- |
| 1 | B1 |
| 1.1 | B2 |
| 0.4 | B3 |
| 2.4 | B4 |
| 0.8 | B5 |
| 0.4 | B6 |
| 0.9 | B7 |
| 1 | B8 |
| 0.5 | B9 |

Molecular target: T1, FcgRIIaH
Test: as above
Method: as §2

| Relative KD | Binder |
| --- | --- |
| 1 | B1 |
| 0.7 | B2 |
| 1.6 | B3 |
| 1.9 | B4 |
| 2.3 | B5 |
| 1.2 | B6 |
| 0.5 | B7 |
| 1.6 | B8 |
| 0.3 | B9 |

Molecular target: T5, FcgRIIIaV
Test: as above
Method: as §2

| Relative KD | Binder |
| --- | --- |
| 1 | B1 |
| 10 | B2 |
| 1.1 | B3 |
| 0.4 | B4 |
| 0.4 | B5 |
| 0.6 | B6 |
| 1.2 | B7 |
| 0.8 | B8 |
| 0 | B9 |

Molecular target: T2, FcgRIIaR
Test: as above
Method: as §2

| Relative KD | Binder |
| --- | --- |
| 1 | B1 |
| 0.7 | B2 |
| 1.1 | B3 |
| 0.6 | B4 |
| 2.3 | B5 |
| 1 | B6 |
| 0.5 | B7 |
| 1.1 | B8 |
| 1.8 | B9 |

Molecular target: T6, FcgRIIIaF
Test: as above
Method: as §2

| Relative KD | Binder |
| --- | --- |
| 1 | B1 |
| 4.3 | B2 |
| 1.5 | B3 |
| 0.5 | B4 |
| 0.6 | B5 |
| 0.7 | B6 |
| 0.7 | B7 |
| 0.6 | B8 |
| 0.1 | B9 |

Molecular target: T3, FcgRIIb
Test: as above
Method: as §2

| Relative KD | Binder |
| --- | --- |
| 1 | B1 |
| 1.2 | B2 |
| 1 | B3 |
| 0.8 | B4 |
| 2.2 | B5 |
| 1.5 | B6 |
| 0.6 | B7 |
| 1.2 | B8 |
| 1.4 | B9 |
